Assay results taken from patent US20240002477A1 (UNIVERSITY OF CHICAGO, published 2024).
Residue numbers refer to the chain shown, from its start.

B1: S144-843 (antibody, V domains shown)
VH: QVQLVESGGGVVQPGGSVRLSCAASGFDFTNNGMYWVRQAPGKGLEWVAFIRYDGNKQDYADSVKGRFTISRDNSKNTLYLQMSSLRPEDTAVYYCAKGVYTENYGWGQGTLVTVSS
VL: EIVLTQSPGTLSLSPGERATLSCRASQTVTSRYLAWYQQKPGQAPRLLIYGASTRATGIPDRFSGSGSGTDFTLTISRLEPEDFAVYYCQQYGNSPPYTFGQGTKLEIK
notes: recombinant human IgG1
B2: S144-588 (antibody, V domains shown)
VH: QLQLQESGPGLVKPSETLSLTCTVSGGSISSSSYYWGWIRQPPGKGLEWIGSIYYSGSTYYNPSLKSRFTISVDTSKNQFSLKLSSVTAADTAVYYCAAYQRKLGYCRGNSCFSCFDPWGQGTLVTVSS
VL: not shown
notes: recombinant human IgG1
B3: S144-741 (antibody, V domains shown)
VH: QVHLVQSGAEVKKPGASVKVSCKASGYTFTGYYMNWVRQAPGQGLEWMGRINPNSGGTNYAQKFQGRVTMTRDTSISTAYMELSRLRSDDAAVYYCARAERYSSSWYNLYYWGQGTLVTVSS
VL: not shown
notes: recombinant human IgG1
B4: S144-1299 (antibody, V domains shown)
VH: QVQLQESGPGLVKPSETLSLTCTVSGGSISSYYWSWIRQPPGKGLEWIGYINYRGITNYNPSLKSRVTISVDMSKNQFSLKLSSVTAADTAVYSCARLAVASRGTVDYWGQGTLVTVSS
VL: not shown
notes: recombinant human IgG1
B5: S564-287 (antibody, V domains shown)
VH: not shown
VL: QSALTQPASVSGSPGQSITISCTGTSSDVGGYNYVSWYQQHPGKAPKLMIYDVSNRPSGVSNRFSGSKSGNTASLTISGLQAEDEADYYCSSYASSSTWVFGGGTKLTVL
notes: recombinant human IgG1
B6: S24-278 (antibody, V domains shown)
VH: QVQLVQSGAEVKKPGASVKVSCKASGYTFTGYYMHWVRQAPGQGLEWMGWINPNSGDTNYAQKFQGWVTMTRDTSLSTAYMELSRLKSDDTAVYYCARVGVGEYSGRHYYYYGMDVWGQGTTVTVSS
VL: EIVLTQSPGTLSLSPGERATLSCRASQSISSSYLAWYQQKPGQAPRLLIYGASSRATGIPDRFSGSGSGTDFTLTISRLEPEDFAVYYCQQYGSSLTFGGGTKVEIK
B7: S24-1378 (antibody, V domains shown)
VH: EVQLVESGGGLVQPGGSLRLSCAASGFTVSSNYMSWVRQAPGKGLEWVSVIYSGGSTYYADSVKGRFTISRHNSKNTLYLQMNSLRAEDTAVYYCAREGYCTNGVCYRHAFDIWGQGTMVTVSS
VL: QTVVTQEPSFSVSPGGTVTLTCGLSSGSVSTSYYPSWYQQTPGQAPRTLIYSTNTRSSGVPDRFSGSILGNKAALTITGAQADDESDYYCVLYMGSGISVFGGGTKLTVL
B8: S564-14 (antibody, V domains shown)
VH: EVQLVESGGGLVQPGGSLRLSCAASGLTFSSYWMSWARQAPGKGLEWVANIKKDGSEKYYVDSVKGRFTISRDNAKNSLYLQMNSLRVEDTAVYYCASEPPHYGGNSGAEYFQHWGQGTLVTVSS
VL: SYVLTQPPSVSVAPGKTARITCGGNNIGSKSVHWYQQRPGQAPVLVIYYDSDRPSGIPERFSGSNSGNTATLTISRVEAGDEADYYCQVWDSSSDHHYVFGTGTKVTVL
B9: S144-1406 (antibody, V domains shown)
VH: QVQLVQSGAEVKKPGASVKVSCKASGYTFTTYAMHWVRQAPGQRLEWMGWINAGNGNTKYSQNFQGRVTITRDTSASTAYMELSSLRSEDTAVYYCASLVGGDSSSWYDYMDVWGKGTTVTVSS
VL: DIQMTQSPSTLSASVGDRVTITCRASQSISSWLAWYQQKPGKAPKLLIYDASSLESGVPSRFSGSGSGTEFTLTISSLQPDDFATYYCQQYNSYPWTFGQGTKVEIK
B10: S564-138 (antibody, V domains shown)
VH: QVLLVQSGAEVKKPGASVKVSCKASGYTFTGYYLHWVRQAPGQGLEWMGWINPISGGTNYAQNFQDRVTMTRDTSIITAYMELSRLRSDDTAVYYCARLAYYYDSSAYRGAFDIWGQGTMVTVSS
VL: B5 VL with D52E, N62D, A94T, W99Y, G103T, L107V
B11: S564-152 (antibody, V domains shown)
VH: QVQLVESGGGVVQPGRSLRLSCAASGFTFSYYGMHWVRQAPGKGLEWVAVIWYDGSNKHYADSVKGRFTISRDNSKNTLYLQMNSLRAEDTAVYYCAKNAAPYCSGGSCYGTYFDYWGQGTLVTVSS
VL: DIQMTQSPSSLSASVGDRVTITCQASQDINNYLNWYQQKPGKAPKLLIYDASNLETGVPSRFSGSGSGTDFTFTISSLQPEDIATYYCQQYDNVPPHTFGQGTKLEIK
B12: S144-1299 (antibody, V domains shown)
VH: B4 VH
VL: not shown
B13: S564-287 (antibody, V domains shown)
VH: not shown
VL: B5 VL
B14: S144-67 (antibody, V domains shown)
VH: EVQLVQSGAEVKKPGESLKISCKGSGYSFTTYWIAWVRQMPGKGLEWVGIIYPDDSDTRYSPSFQGQVTISADKSIGTAYLQWSSLKASDTAMYYCARGQYYDFWSGAGGVDVWGQGTTVTVSS
VL: QSVLTQPPSVSGAPGQRVTISCTGSRSNIGAGYDVQWYQQVPGTAPKLLISGNSNRPSGVPDRFSGSKSGTSASLAITGLQAEDEADYYCQSYDSSLSGLRVFGGGTKLTVL
B15: S144-69 (antibody, V domains shown)
VH: EVQLVQSGAEVKKPGESLKISCKGSGYSFTSYWIGWVRQMPGKGLEWMGIIYPGDSDTRYSPSFQGQVTISADKSITTAYLQWSSLKASDTAMYYCARTQTTNWFDSWGQGTLVTVSS
VL: DIQMTQSPSTLSVSVGDRVTITCRASQSVSSWLAWYQQKPGKAPKLLIYDASSLESGVPSRFSGSGSGTEFTLTISSLQPDDFATYYCQQYNSFYTFGQGTKLEIK
B16: S144-466 (antibody, V domains shown)
VH: EVQLVQSGAEVKKPGESLKISCKGSGYRFTRYWIGWVRQMPGKGLEWMGIIYLGDSETRYSPSFQGQVTISADNSISTAYLQWSSLKASDTAMYYCARSSNWNYGDYWGQGTLVTVSS
VL: DIQMTQSPSTLSASVGDRVTITCRASQSITSWLAWYQQKSGKAPKLLIYDASSLESGVPSRFSGSGSGTEFTLTISSLQPDDFATYYCQQYNSYPWTFGQGTKVEIK
B17: S144-509 (antibody, V domains shown)
VH: EVQLVQSGAEVKKPGESLKISCKGSAYTFTTYWIGWVRQMPGKGLEWMGIIYPGDSDTRYSPSFQGQVTISADKSISTAYLQWSSLKASDTAMYYCARLLLVAGPFDYWGQGTLVTVSS
VL: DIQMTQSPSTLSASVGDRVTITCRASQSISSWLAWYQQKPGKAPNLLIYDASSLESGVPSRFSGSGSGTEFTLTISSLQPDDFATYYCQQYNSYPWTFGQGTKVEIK
B18: S144-1079 (antibody, V domains shown)
VH: QVQLVQSGAEVKKPGSSVKVSCKASGDTFGSYSITWVRQAPGQGLEWMGRIIPVLGIANYAQKFQGRVTITADKSTSTAYMELSSLRSEDTAVYYCAGGGCSGGNCYSWYNWFDPWGQGSLVTVSS
VL: EIVLTQSPGTLSLSPGERATLSCRASQSVSSNYLAWYQQKPGQAPRLLIYGASSRATGIPERFSGSGSGTDFTLTISRLEPEDFAVYYCQQYGRSPYTFGQGTKLEIK
B19: S144-843 (antibody, V domains shown)
VH: B1 VH
VL: B1 VL
B20: S144-208 (antibody, V domains shown)
VH: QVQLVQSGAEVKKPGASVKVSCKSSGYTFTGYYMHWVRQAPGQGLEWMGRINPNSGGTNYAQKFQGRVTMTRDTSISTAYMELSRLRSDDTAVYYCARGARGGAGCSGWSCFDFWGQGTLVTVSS
VL: QSALTQPRSVSGSPGQSVTISCTGTSSDVGGYKYVSWYQQHPGKAPKLMIYDVSKRPSGVPDRFSGSKSGNTASLTISGLQAEDEGDYYCCSYAGTYSLVFGGGTKVTV
B21: S144-588 (antibody, V domains shown)
VH: B2 VH
VL: not shown
B22: S144-741 (antibody, V domains shown)
VH: B3 VH
VL: not shown
B23: S144-175 (antibody, V domains shown)
VH: QVQLVQSGAEVKKPGASVKVSCKASGYTFTGYYMHWVRQAPGQGLEWMGRINPNSGGTNFAQRFQGRVSMTRDTSISTAYMELSSLRSDDTAVYYCARGAKFEHLPFDIWGQGTMVTVSS
VL: QSMLTQPPSASGTPGQRVTISCSGSSSNIGSNYVYWYQQLPGTAPKLLIYRNNQRPSGVPDRFSGSKSGTSASLAISGLRSEDEADYYCAAWDDRRWVFGGGTKLTVL

These binders were tested against T1, SARS-CoV-2 ORF8 protein (SARS-CoV-2, UniProt P0DTC8 16-121) (assay: mAb table, Specificity column (recombinant IgG1; ELISA)).
T1 construct: domain: Ig-like domains; also called open reading frame 8
T1 sequence (P0DTC8 16-121, tags left off): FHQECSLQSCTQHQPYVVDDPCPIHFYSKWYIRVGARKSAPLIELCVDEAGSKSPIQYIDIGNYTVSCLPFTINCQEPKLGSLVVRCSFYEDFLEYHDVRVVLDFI

| Binder | binding result |
| --- | --- |
| B1 | binds |
| B2 | binds |
| B3 | binds |
| B4 | binds |
| B5 | binds |

Each binder was assayed against T2, SARS-CoV-2 open reading frame 8 (ORF8) protein (SARS-CoV-2, UniProt P0DTC8 16-121) (assay: not given).
T2 construct: domain: Ig-like domains; also called ORFS [sic]
T2 sequence (P0DTC8 16-121, tags left off): as above

| Binder | binding result |
| --- | --- |
| B6 | binds |
| B7 | binds |

These binders were tested against SARS-CoV-2 spike receptor binding domain (SARS-CoV-2, UniProt P0DTC2 319-541) (assay: not given).

| Binder | binding result |
| --- | --- |
| B8 | binds |
| B9 | binds |
| B10 | binds |
| B11 | binds |

The binders below were run against T3, SARS-CoV-2 open reading frame 8 protein (SARS-CoV-2, UniProt P0DTC8 16-121) (assay: not given).
T3 construct: domain: Ig-like domain; also called ORF8
T3 sequence (P0DTC8 16-121, tags left off): as above

| Binder | binding result |
| --- | --- |
| B12 | binds |
| B13 | binds |

Molecular target: SARS-CoV-2 spike receptor binding domain (SARS-CoV-2, UniProt P0DTC2 319-541)
Test: not given
Remark: another data set of the same source

| Binder | binding result |
| --- | --- |
| B14 | binds |
| B15 | binds |
| B16 | binds |
| B17 | binds |
| B18 | binds |

These binders were tested against T4, SARS-CoV-2 open reading frame 8 protein (SARS-CoV-2, UniProt P0DTC8 16-121) (assay: not given).
T4 construct: domain: Ig-like domain; also called ORF8
T4 sequence (P0DTC8 16-121, tags left off): as above

| Binder | binding result |
| --- | --- |
| B19 | binds |
| B20 | binds |
| B21 | binds |
| B22 | binds |
| B23 | binds |
